Results taken from patent publication US20220089770A1 (Chugai, published 2022).
Values belong to the binder of their own block, whether it stands above or below them.

Tests used:
[1] = molecular target: T1, human XPR1-Myc (human, UniProt Q9UBH6 1-696); experiment: flow cytometry on Expi293 cells transiently expressing human XPR1-Myc against cells with empty vector; anti-human IgG Fc Alexa488
T1 sequence: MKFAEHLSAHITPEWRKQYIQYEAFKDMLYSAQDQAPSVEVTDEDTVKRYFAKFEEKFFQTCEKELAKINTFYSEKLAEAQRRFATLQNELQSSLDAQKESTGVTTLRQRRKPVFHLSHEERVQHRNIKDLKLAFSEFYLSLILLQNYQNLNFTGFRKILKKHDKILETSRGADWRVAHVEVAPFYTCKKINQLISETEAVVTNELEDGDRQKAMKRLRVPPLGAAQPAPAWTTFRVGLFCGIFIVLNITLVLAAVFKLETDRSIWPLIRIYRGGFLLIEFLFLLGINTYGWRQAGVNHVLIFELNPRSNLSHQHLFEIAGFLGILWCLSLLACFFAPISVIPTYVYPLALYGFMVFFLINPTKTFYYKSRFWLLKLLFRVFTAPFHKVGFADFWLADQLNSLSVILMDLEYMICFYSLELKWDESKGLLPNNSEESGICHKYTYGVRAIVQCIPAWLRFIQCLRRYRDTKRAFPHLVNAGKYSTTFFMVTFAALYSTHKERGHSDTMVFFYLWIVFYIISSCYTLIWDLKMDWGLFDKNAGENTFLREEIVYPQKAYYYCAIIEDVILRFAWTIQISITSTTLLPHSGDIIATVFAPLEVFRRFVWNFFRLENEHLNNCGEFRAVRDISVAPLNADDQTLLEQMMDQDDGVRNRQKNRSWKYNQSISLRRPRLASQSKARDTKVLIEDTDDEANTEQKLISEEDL
Experimental: A plasmid vector expressing in mammalian cells full-length human XPR1 (amino acid SEQ ID NO: 1) with a Myc tag sequence ([…], SEQ ID NO: 25) added to the C-terminus (human XPR1-Myc, nucleotide SEQ ID NO: 26, amino acid SEQ ID NO: 27) was constructed. The protein was transiently expressed in Expi293 cells (Thermo Fisher Scientific) by introducing the constructed plasmid vector into Expi293 cells. At the same time, Expi293 cells transfected with an empty plasmid vector were also prepared as a control. The Expi293 cells transfected with an empty plasmid vector were stained with CellTrace FarRed (Thermo Fisher Scientific) and then mixed with the Expi293 cells made to express human XPR1-Myc, and subsequently reacted with the anti-human XPR1 antibody prepared in Example 6. […] The cells reacted with the antibody were measured by FACS Aria III (Becton, Dickinson and Company). The obtained data were analyzed by FlowJo ver.10. The live cell fraction, which was not stained with DAPI fluorescence, was separated into a fraction that was stained with CellTrace FarRed (cells transfected with the empty plasmid vector) and a fraction that was not stained with CellTrace FarRed (cells transfected with the human XPR1-Myc expression plasmid vector), and Alexa488 staining for each fraction was examined.

[2] = molecular target: human NOX1-Strep (human, UniProt Q9Y5S8 1-564); experiment: flow cytometry on fixed, digitonin-treated Expi293 cells expressing human NOX1-Strep against cells with empty vector; anti-human IgG Fc Alexa488
Chain of human NOX1-Strep (Q9Y5S8 other isoform, or with tags, fused parts or gaps): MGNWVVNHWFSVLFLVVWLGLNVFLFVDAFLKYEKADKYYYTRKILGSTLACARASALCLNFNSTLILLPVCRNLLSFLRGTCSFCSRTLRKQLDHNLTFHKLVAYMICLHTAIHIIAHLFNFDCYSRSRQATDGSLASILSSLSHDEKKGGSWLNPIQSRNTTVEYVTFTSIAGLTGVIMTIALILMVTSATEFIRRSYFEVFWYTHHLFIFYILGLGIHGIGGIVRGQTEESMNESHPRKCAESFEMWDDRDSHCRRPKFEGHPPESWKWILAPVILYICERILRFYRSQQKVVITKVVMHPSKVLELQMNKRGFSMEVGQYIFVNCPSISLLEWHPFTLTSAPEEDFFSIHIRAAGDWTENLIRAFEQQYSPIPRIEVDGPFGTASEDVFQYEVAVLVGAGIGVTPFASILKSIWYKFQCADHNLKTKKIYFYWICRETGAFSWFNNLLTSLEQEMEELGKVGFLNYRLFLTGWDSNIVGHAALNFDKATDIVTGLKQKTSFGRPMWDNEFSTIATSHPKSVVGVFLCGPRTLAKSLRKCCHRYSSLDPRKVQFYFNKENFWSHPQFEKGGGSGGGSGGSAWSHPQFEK
Experimental: (§1) A plasmid vector expressing human NOX1-Strep (amino acid SEQ ID NO: 34) or a plasmid vector expressing NOX1_Nx1B_564-myc (amino acid SEQ ID NO: 33) was introduced into Expi293 cells (Thermo Fisher Scientific) to express the protein transiently. At the same time, Expi293 cells transfected with an empty plasmid vector were also prepared as a control. These cells were treated with 4% paraformaldehyde and 1% digitonin. The Expi293 cells transfected with an empty plasmid vector were stained with CellTrace FarRed (Thermo Fisher Scientific), the Expi293 cells transfected with the plasmid vector expressing human NOX1-Strep were stained with CellTrace FarRed and CellTrace Violet (Thermo Fisher Scientific), and then mixed with the Expi293 cells made to express NOX1_Nx1B_564-myc. Subsequently, the cells were reacted with an anti-human NOX1 antibody prepared in Example 13.
(§2) Then, anti-human IgG Fc cross-adsorbed Alexa488 (Invitrogen) was reacted to stain the anti-human NOX1 antibody. The cells reacted with the antibody were measured by FACS Aria III (Becton, Dickinson and Company). The obtained data were analyzed by FlowJo ver.10.

[3] = molecular target: T2, NOX1_Nx1B_564-myc (human); experiment: flow cytometry on fixed, digitonin-treated Expi293 cells expressing NOX1_Nx1B_564-myc against cells with empty vector; anti-human IgG Fc Alexa488
T2 construct: Expressed in Expi293 cells treated with 4% paraformaldehyde and 1% digitonin before staining; also called human NOX1
T2 sequence (chain, as listed by the source limits assumed): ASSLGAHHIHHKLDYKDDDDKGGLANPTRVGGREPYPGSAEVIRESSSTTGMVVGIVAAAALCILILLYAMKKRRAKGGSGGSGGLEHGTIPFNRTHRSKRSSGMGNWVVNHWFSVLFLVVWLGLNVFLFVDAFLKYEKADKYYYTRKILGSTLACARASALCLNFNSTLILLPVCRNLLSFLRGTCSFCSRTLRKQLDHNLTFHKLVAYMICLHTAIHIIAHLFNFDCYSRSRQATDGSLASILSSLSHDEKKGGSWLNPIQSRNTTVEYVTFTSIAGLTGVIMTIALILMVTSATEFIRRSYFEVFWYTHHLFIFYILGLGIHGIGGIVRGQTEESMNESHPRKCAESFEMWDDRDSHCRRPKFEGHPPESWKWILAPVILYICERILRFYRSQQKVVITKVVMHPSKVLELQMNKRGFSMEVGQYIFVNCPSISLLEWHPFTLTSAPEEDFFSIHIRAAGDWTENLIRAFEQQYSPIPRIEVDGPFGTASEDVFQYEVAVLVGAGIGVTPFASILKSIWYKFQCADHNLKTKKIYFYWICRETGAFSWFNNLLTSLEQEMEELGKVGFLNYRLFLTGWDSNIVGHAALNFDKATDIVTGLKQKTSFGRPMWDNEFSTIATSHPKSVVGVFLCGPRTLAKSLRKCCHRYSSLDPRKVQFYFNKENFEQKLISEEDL
Experimental: as §1, §2

[4] = molecular target: T3, Myc-human MARVELD3 (human, UniProt Q96A59 2-401); experiment: flow cytometry on Expi293 cells transiently expressing Myc-human MARVELD3 isoform2 against cells with empty vector; anti-human IgG Fc Alexa488
T3 construct: also called human MARVELD3 isoform2; MARVELD3 isoform2
T3 sequence: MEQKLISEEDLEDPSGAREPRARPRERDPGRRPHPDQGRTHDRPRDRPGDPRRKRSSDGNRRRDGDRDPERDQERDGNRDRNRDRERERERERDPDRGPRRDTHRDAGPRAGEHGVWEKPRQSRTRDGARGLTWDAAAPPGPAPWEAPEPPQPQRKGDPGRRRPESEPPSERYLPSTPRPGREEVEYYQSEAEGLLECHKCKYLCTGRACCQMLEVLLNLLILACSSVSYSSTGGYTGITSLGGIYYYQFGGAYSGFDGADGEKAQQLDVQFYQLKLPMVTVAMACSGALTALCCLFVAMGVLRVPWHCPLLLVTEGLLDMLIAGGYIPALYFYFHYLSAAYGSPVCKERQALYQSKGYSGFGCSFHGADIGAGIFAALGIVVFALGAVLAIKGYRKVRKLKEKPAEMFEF
Text: A plasmid vector that expresses, in mammalian cells, a molecule (Myc-human MARVELD3, nucleotide SEQ ID NO: 29, amino acid SEQ ID NO: 30) in which the Myc tag sequence ([…], SEQ ID NO: 25) has been added after the N-terminal methionine of full-length human MARVELD3 isoform2 (amino acid SEQ ID NO: 4), was introduced into Expi293 cells (Thermo Fisher Scientific), and the protein was transiently expressed in the Expi293 cells. At the same time, Expi293 cells transfected with an empty plasmid vector were also prepared as a control. The Expi293 cells transfected with an empty plasmid vector were stained with CellTrace FarRed (Thermo Fisher Scientific) and then mixed with the Expi293 cells made to express human MARVELD3 isoform2, and subsequently reacted with an anti-human MARVELD3 isoform2 antibody prepared in Example 9. […] The cells reacted with the antibody were measured by FACS Aria III (Becton, Dickinson and Company). The obtained data were analyzed by FlowJo ver.10. The live cell fraction, which was not stained with DAPI fluorescence, was separated into a fraction that was stained with CellTrace FarRed (cells transfected with the empty plasmid vector) and a fraction that was not stained with CellTrace FarRed (cells transfected with the human XPR1-Myc expression plasmid vector), and Alexa488 staining for each fraction was examined.

B1: XPB0062 (antibody, V domains shown)
VH: QSLEESGGDLVKPGASLTLTCTASGFSFSSSYWICWVRQAPGKGLEWIACINAGNSGSTYYASWAKGRFTISKTSSTTVTLQMTSLTAADTATYFCARGSYSYGYVGYVYTTSTRLDLWGQGTLVTVSS
VL: DVVMTQTPASVSEPVGGTVTIKCQASQNIGSDLAWYQQKPGQPPKLLIYRASTLASGVSSRFKGSGSGTQFTLTISDLECADAATYYCQCTYYGSIYVPNAFGGGTEVVVK
notes: Rabbit variable regions inserted into an expression vector containing the IgG constant regions (recombinant antibody); detected with anti-human IgG Fc; also called anti-human XPR1 antibody
binding result [1]: binds

B3: NXA0125 (antibody, V domains shown)
VH: QEQLEESGGDLVKPGASLTLTCTASGFSFNSNYFMCWVRQAPGKGLEWIACIYTGSSGGTYYATWAKGRFTISKTSSTTVTLQMTSLTAADTATYFCAGDTMTIPFNLWGPGTLVTVSS
VL: QVLTQTASPVSAPVGGTVTINCQASQSVYNNNNLHWFQQKPGQRPKLLIYFASTLASGVSSRFKGSGSGTQFTLTISGVQCDDAATYYCQGEFSCSSADCNAFGGGTEVVVK
notes: Rabbit variable regions inserted into an expression vector containing IgG constant regions; detected with anti-human IgG Fc; also called anti-human NOX1 antibody
binding result [2]: binds
binding result [3]: binds

B5: MDA0314 (antibody, V domains shown)
VH: QSLEESGGRLVTPGTPLTLTCTASGFSLSYYFMTWVRQAPGKGLEYIGIIRVDGSGYYATWAKGRFTISRTSTTVELKITSPTTEDTATYFCARVGDWAFNIWGPGTLVTVSS
VL: IKMTQTPASVSTAVGGTVSINCQASEDIESYLAWFQQKPGQRPKLLIYRASTLASGVSSRFKGSGSGTEFTLTISGVECADAATYYCQQGHTINNIDNVFGGGTEVVVK
notes: Rabbit variable regions inserted into an expression vector containing the IgG constant regions; detected with anti-human IgG Fc; also called anti-human MARVELD3 isoform2 antibody
binding result [4]: binds

Now from value to binder:

binding result [2]: binds
binding result [3]: binds
B2: NXA0164 (antibody, V domains shown)
VH: QSVEESGGRLVTPGTPLTLTCTVSGFSLSNYAMSWVRQAPGKGLEWIGIISSSGSTYYASWAKGRFTISKTSTTVDLKITSPTTEDTATYFCARDLDASTGTDIWGPGTLVTVSS
VL: AVLTQTPSPVSAAVGGTVTINCQASQSVYSNNYLSWFQQKPGQPPKLLIYKASTLASGVPSRFKGSGSGTQFTLTISDVQCDDAATYYCAGDYKSSSDIRAFGGGTEVVVK
notes: as for B3

binding result [4]: binds
B4: MDA0279 (antibody, V domains shown)
VH: QSLEESGGDLVKPGGTLTLTCTASGFSFSDWYWVGWVRQAPGKGLEWIGCIVTGNGHTYYASWAKGRFTISKTSSTTVTLQLNSLTAADTATYFCARGVGASRYALWGPGTLVTVSS
VL: IVMTQTPSSKSVPVGDTVTINCQASESVASNWLSWYQQKPGQPPKLLIYFASTLASGVPSRFKGSGSGTQFTLTISDVVCDDAATYYCAGYKSDTTDGTAFGGGTEVVVK
notes: as for B5
